The data set deals with T1, MatP, tag cleaved (Escherichia coli, UniProt P0A8N0 1-150).
T1 sequence: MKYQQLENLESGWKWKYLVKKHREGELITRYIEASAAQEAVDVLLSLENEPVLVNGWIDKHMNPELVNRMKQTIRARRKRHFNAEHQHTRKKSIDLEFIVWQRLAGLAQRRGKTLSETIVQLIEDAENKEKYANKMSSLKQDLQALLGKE
Put plainly: crystal structure.

This note sets out measurements from article PMC7505563.

B1: matS 19mer (dsDNA)
DNA 1: TTCGTGACATTGTCACGAA
DNA 2: TTCGTGACAATGTCACGAA
Regarding B1, the binding result was “binds”.
